The assay deals with α-Synuclein fibrils (preformed fibrils of recombinant human wild-type αSyn) (human, UniProt P37840 1-140). The assay is described as follows: co-sedimentation; as a4 with a range of peptide concentrations (0–200 μM) and αSyn fibrils (100 μM); bound peptide by reversed phase chromatography. The note with it: both partners purified.

By Kd is commonly meant the free concentration of one partner at which half of the binding sites on the other are occupied at equilibrium, for simple one-to-one binding.

B1: Hsc-10 (Hsc70-derived peptide) (peptide)
peptide: GILNVSAVDKSTGKENKITITN
notes: Hsc70 residues 484–505; source: synthetic peptide; bought: GL Biochem Ltd
On to B1, for which the Kd is over 100 µM.

B2: Hsc-6 (Hsc70-derived peptide) (peptide)
peptide: TKQTQTFTTYSDNQPGVLIQVYE
notes: Hsc70 residues 422–444; source: synthetic peptide; bought: GL Biochem Ltd
B2: the Kd is over 100 µM.

(Values after publication PMC7425896, “Polypeptides derived from α-Synuclein binding partners to prevent α-Synuclein fibrils interaction with and take-up by cells” (PLoS ONE, 2020).)
